Data published in patent US20240084262A1, “METHODS FOR DIFFERENTIATION OF PANCREATIC EXOCRINE CELLS FROM HUMAN INDUCED PLURIPOTENT STEM CELLS” (CEDARS-SINAI MEDICAL CENTER, priority 2020, published 2024).
Entries after “also recorded” stand apart in the source; their conditions may differ.

Legend:
[1] = system: iPSC-derived pancreatic progenitors; assay: Acinar differentiation of iPSC-derived pancreatic progenitors (ICC); assay type: cell-based, human; conditions: for PDX1 levels / expression / amylase positive clusters / cells: Notch modulation in the presence of FGF10
Experimental: Using the same DMEM base media, cells were then treated daily for seven days with XXI, FGF10, Noggin, Nicotinamide, and Murine Wnt3a (Peprotech). By the end of this stage, cell clustering could be seen.
Planar fixed samples were fixed with 4% paraformaldehyde in PBS for 15 minutes. Following this, they were washed three times with PBS and then incubated with 10% donkey serum with 0.1% Triton-X for one hour. Primary antibodies diluted in the 10% blocking serum were added, and the samples were let incubate for three hours at room temperature or overnight at 4 C. From here, the samples were washed three times for five minutes each with 0.1% TWEEN in PBS. Secondary antibodies diluted at 1:1000 in the blocking serum were added and the samples were allowed to sit one hour at room temperature. Three rounds of five-minute washes with PBS were performed before Hoechst was added at a 1:2000 dilution in PBS. After a 15-minute room temperature incubation, samples were washed with PBS three times before being imaged.
We performed an experiment comparing the use of notch inhibitor XXI vs notch activator sDLL-1 with FGF10. […] We added Wnt3a as it is important.

[2] = system: iPSC-derived pancreatic progenitors; assay: iPan Ductal maturation/specification (qPCR, ICC); assay type: cell-based, human
Experimental: After 1 day of Phase III, on Day 7, cells were single cell dissociated with TrypLE for 3-6 minutes, washed and seeded at 33% confluency (9.5×10^4 cells/cm^2) in Phase III media plus 10 μM Rho kinase Inhibitor. On Day 8 onwards, cells were treated with Phase IV media—addition of FGF10 (25 ng/ml), EGF (50 ng/ml), and sDLL-1 (25 ng/ml, Peprotech). The base media for phase III and IV consists of DMEM, lx Pen-Strep, 1×B27 without Vitamin A (Thermo Fisher), and Vitamin C (250 μM).
For organoids, Cell Recovery Solution (Corning) was added for an hour in 4° to remove Matrigel then washed 3× with PBS. Total RNA was isolated with RLT buffer (Qiagen), syringed with 23 G needle, then extracted with RNeasy Micro Kit (Qiagen) according to the manufacturer's instructions. The concentration and the purity of RNA was determined with NanoDrop. 1-2 μg RNA was reverse transcribed to cDNA High-Capacity cDNA Reverse Transcription kit (Thermo Fisher). Real-time qPCR was performed (technical replicates, n=3-4) using SYBR Master Mix (Applied Biosystems, #4472952) and specific primer sequences to each gene (Table 1), on a CFX384 Real Time system (Bio-Rad). Human RPL13 was used as the reference gene and relative expression was determined using 2-ΔΔ Ct method.
Planar cultures were fixed with 4% PFA for 15 minutes, washed with PBS and then blocked overnight at 4° C. with 10% donkey serum containing 0.1% Triton-X100. After overnight incubation with primary antibodies at 4° C., cells were washed with 0.1% TWEEN-20 3× for 5 min, incubated with secondary antibodies for an hour at RT, and finally incubated with Hoechst 33342 (1:2000 dilution) for 15 minutes for nuclear counterstaining.
To optimize the ductal maturation phase, the effect of dissociating pancreatic progenitors on Day 7 and adding growth factor EGF and the Notch activating ligand sDLL-1 to the cultures was explored. FGF10 was also added at this time to increase proliferation of pancreatic cells. Based on our results, we incorporated a dissociation step prior to initiating EGF and Notch signaling in our defined iPan Ductal protocol (FIG. 2A). Dissociation of pancreatic progenitor cells inhibited acinar differentiation by Day 21 (FIG. 2B).

[3] = sDLL1 for 2 weeks started late, at pancreatic endoderm stage, Day 21

In the case of `C[C@H](NC(=O)Cc1cc(F)cc(F)c1)C(=O)N[C@H]1N=C(c2ccccc2)c2ccccc2N(C)C1=O` [XXI], the “PDX1 levels / expression” value [1] is reported as “reduces PDX1 expression; also recorded: lowest PDX1 levels” and the “amylase positive clusters / cells” value [1] is reported as “increases islands of amylase positive cells; also recorded: most increase in amylase positive clusters”.

With EGF: growth factor EGF the “survival and confluency (immunocytochemistry)” value ([2]; dissociated cells exposed to EGF) was “increased survival and confluency” and the “levels of ductal markers KRT19, HNF1B, SOX9, FOXA2” value ([2]; dissociated cells with exposure to EGF) was “increased levels of ductal KRT19, HNF1B, SOX9, and FOXA2 markers”.

B1: sDLL1: Notch-activating ligand; extracellular signaling domain of DLL1 (protein, UniProt O00548 18-545, looked up)
extracellular domain: QVWSSGVFELKLQEFVNKKGLLGNRNCCRGGAGPPPCACRTFFRVCLKHYQASVSPEPPCTYGSAVTPVLGVDSFSLPDGGGADSAFSNPIRFPFGFTWPGTFSLIIEALHTDSPDDLATENPERLISRLATQRHLTVGEEWSQDLHSSGRTDLKYSYRFVCDEHYYGEGCSVFCRPRDDAFGHFTCGERGEKVCNPGWKGPYCTEPICLPGCDEQHGFCDKPGECKCRVGWQGRYCDECIRYPGCLHGTCQQPWQCNCQEGWGGLFCNQDLNYCTHHKPCKNGATCTNTGQGSYTCSCRPGYTGATCELGIDECDPSPCKNGGSCTDLENSYSCTCPPGFYGKICELSAMTCADGPCFNGGRCSDSPDGGYSCRCPVGYSGFNCEKKIDYCSSSPCSNGAKCVDLGDAYLCRCQAGFSGRHCDDNVDDCASSPCANGGTCRDGVNDFSCTCPPGYTGRNCSAPVSRCEHAPCHNGATCHERGHRYVCECARGYGGPNCQFLLPELPPGPAVVDLTEKLEGQGGPFPW
modifications: extracellular domain
notes: extracellular signaling domain of DLL1
In the case of B1, the “PDX1 levels / expression” value [1] is reported as “does not increase the Amylase positive clusters or decrease PDX1 levels”, the “amylase positive clusters / cells” value [1] is reported as “does not increase the Amylase positive clusters” and the “C-Peptide+ endocrine cells” value [2, 3] is reported as “C-Peptide was elevated; also recorded: higher amount of C-Peptide^+ endocrine cells”. The ductal markers [2, 3] was “no increase in ductal markers”.

B2: FGF10: growth factor added to increase proliferation of pancreatic cells; activates PDX1 (protein, UniProt O15520 38-208, looked up)
Fibroblast growth factor 10: QALGQDMVSPEATNSSSSSFSSPSSAGRHVRSYNHLQGDVRWRKLFSFTKYFLKIEKNGKVSGTKKENCPYSILEITSVEIGVVAVKAINSNYYLAMNKKGKLYGSKEFNNDCKLKERIEENGYNTYASFNWQHNGRQMYVALNGKGAPRRGQKTRRKNTSAHFLPMVVHS
In the case of B2, the “CTRC and amylase positive cell expression” value ([1]; FGF10 tested at 0, 2.5, 20 and 50 ng/mL, result for 20 ng) is reported as “most CTRC and amylase positive cell expression”.
